No end group written: not given here.
Molecular target: the molecule itself
Test: non-reducing SDS/PAGE; overnight dialysis at 4°C against non-reducing (DTT-free) HK buffer, non-reducing sample buffer, 65°C 5 min, Coomassie stain; disulphide-linked dimer

B1: GFP–STIM1K+LC (GFP–STIM1K with a leucine and cysteine insertion after residue 666), oxidized dimer (domain or fragment, human, UniProt Q13586-1 662-685, looked up)
chain: GEETDLCSSPGRKKFPLKIFKKPLKK
modifications: not fully specified; inserted cysteine oxidized (84% dimerization)
notes: STIM1, human, residues 662–685 with Leu and Cys inserted after Asp666; The methods describe only the plasmid of the +LC–P675A–P682A form (pMS781); also called GFP–STIM1K dimer; oxidized GFP–STIM1K+LC; source: E. coli BL21 (DE3), purified, dialysed overnight against DTT-free HK buffer; not shown: GFP, N-terminal, kept
Question: With B1 as the protein, how does the “stoichiometry N” value read?
Answer: Its value is 2.

B2: GFP–STIM1K+LC–P675A–P682A, oxidized dimer (domain or fragment, human, UniProt Q13586-1 662-685, looked up)
chain: {GFP}-GEETDLCSSPGRKKFALKIFKKALKK
modifications: also: disulfide-linked dimer via inserted cysteine
notes: STIM1, human, residues 662–685 with Leu and Cys inserted after Asp666, P675A and P682A; also called pMS781; GFP-STIM1K dimer with both prolines mutated; source: E. coli BL21 (DE3), purified, dialysed overnight against DTT-free HK buffer; not shown: GFP, N-terminal, kept
Question: How did the “stoichiometry N” value turn out when B2 was run?
Answer: Its value is 2.

Source: PMC3814058 (Bioscience Reports, 2013)
